Data set [1] has as its target T1, H. influenzae Hap adhesin (Haemophilus influenzae, UniProt P45387, S243A).
T1 construct: expressed in transfected cells; host or cells: H. influenzae strain DB117 carrying pJS106
T1 sequence (P45387 26-1394 S243A): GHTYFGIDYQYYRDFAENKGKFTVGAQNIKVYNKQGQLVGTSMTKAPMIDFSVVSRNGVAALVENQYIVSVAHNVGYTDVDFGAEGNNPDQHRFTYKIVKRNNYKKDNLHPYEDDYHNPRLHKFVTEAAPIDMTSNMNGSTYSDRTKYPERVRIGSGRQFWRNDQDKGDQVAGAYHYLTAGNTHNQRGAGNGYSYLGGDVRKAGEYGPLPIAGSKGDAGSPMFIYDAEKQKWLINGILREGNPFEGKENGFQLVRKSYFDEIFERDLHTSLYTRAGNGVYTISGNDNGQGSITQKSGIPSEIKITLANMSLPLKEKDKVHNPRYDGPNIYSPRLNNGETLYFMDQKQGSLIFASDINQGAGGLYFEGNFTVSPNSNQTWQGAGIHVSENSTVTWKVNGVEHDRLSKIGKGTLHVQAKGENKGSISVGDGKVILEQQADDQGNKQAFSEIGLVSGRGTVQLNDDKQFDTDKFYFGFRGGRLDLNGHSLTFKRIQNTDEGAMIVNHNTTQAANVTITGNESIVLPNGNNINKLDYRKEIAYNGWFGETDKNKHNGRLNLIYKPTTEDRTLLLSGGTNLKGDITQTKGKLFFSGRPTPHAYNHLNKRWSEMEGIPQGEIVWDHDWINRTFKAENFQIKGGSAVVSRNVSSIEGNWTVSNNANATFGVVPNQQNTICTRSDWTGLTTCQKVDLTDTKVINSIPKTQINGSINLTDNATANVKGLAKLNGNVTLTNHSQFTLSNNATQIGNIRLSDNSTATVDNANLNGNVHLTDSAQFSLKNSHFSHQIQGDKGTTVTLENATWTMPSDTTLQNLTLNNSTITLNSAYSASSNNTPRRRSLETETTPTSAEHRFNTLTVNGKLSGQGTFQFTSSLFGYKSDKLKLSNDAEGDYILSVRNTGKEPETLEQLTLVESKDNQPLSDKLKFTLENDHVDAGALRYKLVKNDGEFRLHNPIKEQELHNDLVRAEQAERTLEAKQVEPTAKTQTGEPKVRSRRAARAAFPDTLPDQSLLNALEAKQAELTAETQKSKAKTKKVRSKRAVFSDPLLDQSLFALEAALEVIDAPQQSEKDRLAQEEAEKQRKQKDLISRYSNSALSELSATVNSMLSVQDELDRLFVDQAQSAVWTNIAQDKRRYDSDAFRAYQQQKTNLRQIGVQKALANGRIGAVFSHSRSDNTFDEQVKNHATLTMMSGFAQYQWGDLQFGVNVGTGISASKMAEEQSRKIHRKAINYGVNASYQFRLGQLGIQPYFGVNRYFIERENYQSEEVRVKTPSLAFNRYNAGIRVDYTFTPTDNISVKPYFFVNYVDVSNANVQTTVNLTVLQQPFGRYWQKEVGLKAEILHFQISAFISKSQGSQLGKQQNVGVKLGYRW
Type of data set: cell-based.

Data set [2] has as its system H. influenzae Hap adhesin. Type of data set: cell-based, Haemophilus influenzae.
The target of data set [3] is T2, H. influenzae Hap adhesin (Haemophilus influenzae, UniProt P45387).
T2 construct: expressed in transfected cells; host or cells: H. influenzae strain DB117 carrying pJS106
T2 sequence (P45387 26-1394): T1 sequence (P45387 26-1394 S243A) with A218S
The format is cell-based. The following applies: DB117 expressing wild-type Hap, 13 μM.

Data set [4] deals with T3, 20 amino acid peptide Ala1007-Phe1026 of Hap (Haemophilus influenzae, UniProt P45387).
T3 construct: a 20 amino acid peptide corresponding to residues Ala1007-Phe1026 of Hap was synthesized; made in house; host or cells: chemical synthesis (f-moc), Protein Chemistry Laboratory at Tufts University
In words: Lactoferrin cleavage of synthetic Hap peptide, mass spectrometry. The format is biochemical. The source says:
Next, a 20 amino acid peptide corresponding to residues Ala1007-Phe1026 of Hap was synthesized and subjected to cleavage by milk lactoferrin.

Data set [5] addresses H. influenzae IgA1 protease precursor (Haemophilus influenzae, UniProt P44969, S288V).
Protocol: The Rd strain was grown in brain heart-infusion broth supplemented with hemin (10 μg/ml) and nicotinamide adenine dinucleotide (2 μg/ml) to mid-log phase, and then harvested by centrifugation.
All samples were collected in sterile beakers; within 6 hours of collection they were centrifuged at 10,000×g for 20 min at 4 C to remove lipids and cells. The resulting whey was stored at −70 C and was prepared for use by thawing slowly, without further modifications. 2×10^9 H. influenzae cells were resuspended in 1 ml of the unmodified human milk whey and incubated at 37 C with gentle mixing. Samples were removed at intervals between 2 minutes and 1 hour. Whole cells and supernatants were examined by Western immunoblot using antisera directed against all domains of the preprotein.
Mid-log phase Rd3-13 bacteria were incubated in milk whey, and aliquots were removed at the times shown.
The antiserum used was anti-Rd3-13, which reacts with IgAp, IgAa, and IgAb.
The target in data set [6] is peptide fragments of IgA1 protease (Haemophilus influenzae, UniProt P44969). The note with it: 60 amino acid peptide ending at Arg1397; similar with the 80, 40 and 20 amino acid peptides.
Protocol: To further define the site of cleavage of the IgA1 protease precursor protein, N-Iga was resolved on an SDS-PAGE gel, then stained with Coomassie blue and excised. The excised band was subjected to Lys-C digestion, and mass spectrometry was performed. […] Subsequently, these peptides were treated with lactoferrin and then examined the reaction mixtures by mass spectrometry.
Digests involving lactoferrin and synthetic peptides were extracted twice with 50 μL acetonitrile/2% TFA and then dried and resuspended in matrix solution for analysis by MALDI mass spectrometry.
The conditions of data set [7]: cited from earlier work.

Residue numbers refer to the chain shown, from its start. Where two headings read alike, the source gives them in different places.

Sequence of H. influenzae IgA1 protease precursor (P44969 26-1694 S288V): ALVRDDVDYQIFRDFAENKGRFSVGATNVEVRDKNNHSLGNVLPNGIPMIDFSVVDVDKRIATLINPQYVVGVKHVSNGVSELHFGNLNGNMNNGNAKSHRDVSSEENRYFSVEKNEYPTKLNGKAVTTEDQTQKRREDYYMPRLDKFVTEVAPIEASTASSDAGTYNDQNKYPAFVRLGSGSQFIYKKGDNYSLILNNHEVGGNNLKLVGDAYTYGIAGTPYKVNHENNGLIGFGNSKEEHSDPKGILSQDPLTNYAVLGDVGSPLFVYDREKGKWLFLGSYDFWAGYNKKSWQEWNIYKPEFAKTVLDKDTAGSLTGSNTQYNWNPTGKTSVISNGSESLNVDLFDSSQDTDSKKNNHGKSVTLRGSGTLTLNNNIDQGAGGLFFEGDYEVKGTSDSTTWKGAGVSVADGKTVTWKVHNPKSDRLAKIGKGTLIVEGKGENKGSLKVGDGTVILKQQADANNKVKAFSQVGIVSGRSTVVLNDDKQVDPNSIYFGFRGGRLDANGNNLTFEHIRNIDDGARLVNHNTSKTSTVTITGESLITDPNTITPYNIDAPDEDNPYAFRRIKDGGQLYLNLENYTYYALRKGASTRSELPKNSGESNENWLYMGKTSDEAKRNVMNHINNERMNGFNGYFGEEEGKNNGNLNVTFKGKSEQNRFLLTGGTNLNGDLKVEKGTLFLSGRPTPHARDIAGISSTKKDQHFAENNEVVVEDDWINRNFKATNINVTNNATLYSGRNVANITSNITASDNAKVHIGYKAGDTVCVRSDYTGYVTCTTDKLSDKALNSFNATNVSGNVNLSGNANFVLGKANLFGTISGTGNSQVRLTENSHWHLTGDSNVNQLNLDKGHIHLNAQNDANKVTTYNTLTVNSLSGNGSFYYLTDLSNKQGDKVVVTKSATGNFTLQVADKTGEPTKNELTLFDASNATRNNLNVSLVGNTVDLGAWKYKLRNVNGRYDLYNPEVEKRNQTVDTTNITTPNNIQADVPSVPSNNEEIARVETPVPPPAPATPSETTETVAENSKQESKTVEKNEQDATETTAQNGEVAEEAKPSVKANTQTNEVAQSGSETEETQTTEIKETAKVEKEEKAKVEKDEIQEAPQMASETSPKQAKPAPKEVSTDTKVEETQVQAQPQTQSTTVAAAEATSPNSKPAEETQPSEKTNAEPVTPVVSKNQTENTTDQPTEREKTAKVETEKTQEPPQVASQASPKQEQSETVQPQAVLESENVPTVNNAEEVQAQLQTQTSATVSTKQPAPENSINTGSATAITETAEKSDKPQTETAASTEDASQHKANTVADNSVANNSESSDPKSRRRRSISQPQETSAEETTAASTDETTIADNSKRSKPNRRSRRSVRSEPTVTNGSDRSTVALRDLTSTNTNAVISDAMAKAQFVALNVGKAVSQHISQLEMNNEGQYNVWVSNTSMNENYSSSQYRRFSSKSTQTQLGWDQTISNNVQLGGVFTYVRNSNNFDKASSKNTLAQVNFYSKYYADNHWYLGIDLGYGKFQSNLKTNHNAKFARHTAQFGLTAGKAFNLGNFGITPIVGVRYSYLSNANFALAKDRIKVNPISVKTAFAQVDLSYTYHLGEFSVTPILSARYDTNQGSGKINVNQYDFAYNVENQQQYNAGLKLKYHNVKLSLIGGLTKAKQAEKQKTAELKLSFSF
Sequence of peptide fragments of IgA1 protease (P44969 1338-1397): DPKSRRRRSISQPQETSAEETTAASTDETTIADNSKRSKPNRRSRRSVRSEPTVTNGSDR

B1: human milk lactoferrin: lactoferrin purified from human milk whey using anion exchange and molecular sieve chromatography (protein, UniProt P02788 20-710, looked up)
Lactotransferrin: GRRRSVQWCAVSQPEATKCFQWQRNMRKVRGPPVSCIKRDSPIQCIQAIAENRADAVTLDGGFIYEAGLAPYKLRPVAAEVYGTERQPRTHYYAVAVVKKGGSFQLNELQGLKSCHTGLRRTAGWNVPIGTLRPFLNWTGPPEPIEAAVARFFSASCVPGADKGQFPNLCRLCAGTGENKCAFSSQEPYFSYSGAFKCLRDGAGDVAFIRESTVFEDLSDEAERDEYELLCPDNTRKPVDKFKDCHLARVPSHAVVARSVNGKEDAIWNLLRQAQEKFGKDKSPKFQLFGSPSGQKDLLFKDSAIGFSRVPPRIDSGLYLGSGYFTAIQNLRKSEEEVAARRARVVWCAVGEQELRKCNQWSGLSEGSVTCSSASTTEDCIALVLKGEADAMSLDGGYVYTAGKCGLVPVLAENYKSQQSSDPDPNCVDRPVEGYLAVAVVRRSDTSLTWNSVKGKKSCHTAVDRTAGWNIPMGLLFNQTGSCKFDEYFSQSCAPGSDPRSNLCALCIGDEQGENKCVPNSNERYYGYTGAFRCLAENAGDVAFVKDVTVLQNTDGNNNEAWAKDLKLADFALLCLDGKRKPVTEARSCHLAMAPNHAVVSRMDKVERLKQVLLHQQAKFGRNGSDCPDKFCLFQSETKNLLFNDNTECLARLHGKTTYEKYLGPQYVAGITNLKKCSTSPLLEACEFLRK
In the case of B1, the “effect on Hap preprotein” value in data set [1] (DB117 expressing HapS243A, 13 μM, whole cells) was “loss of the Hap preprotein and generation of a Hap C-terminal fragment”. Besides, the “proteolysis of Hap” value in data set [2] (lowest concentration (87 nM), treatment of cells for 1 hour) was “proteolysis detectable but incomplete”. Also, the “effect on Hap” value in data set [3] is recorded as “resulted in proteolysis, rather than extraction of Hap”. Besides, in data set [4], the “cleavage site in Hap peptide” value is “cleavage between Arg1019 and Arg1020 and between Arg1020 and Ala1021”. Besides, the “removal of IgA protease precursor” value in data set [5] (Rd3-13, 30 min. incubation, bacterial cell pellet) is “small amount of precursor protein remaining”; in data set [5] (Rd3-13, after 15 minutes), “a large amount of precursor has been proteolytically removed”. Besides, in data set [6], the “cleavage site in IgA1 protease peptides” value is “cleavage between Arg1382 and Arg1383 and between Arg1383 and Ser1384”.

B2: A. awamori recombinant lactoferrin: Aspergillus awamori recombinant human lactoferrin provided by Agennix Corporation (protein, UniProt P02788 20-710, looked up)
Lactotransferrin: B1 Lactotransferrin
modifications: expressed in Aspergillus awamori
As to B2, the “proteolysis of Hap” value in data set [1] (DB117/HapS243A, 430 nM) is on record as “partial proteolysis of Hap”. The Hap degradation products entry in data set [2] (DB117 derivatives, 13 μM) is “generated two products”.

B3: DMV Lactoferrin: commercially available bovine milk lactoferrin powder, DMV International Nutritionals, Lot 10022340 (protein, UniProt P24627 20-708, looked up)
Lactotransferrin: APRKNVRWCTISQPEWFKCRRWQWRMKKLGAPSITCVRRAFALECIRAIAEKKADAVTLDGGMVFEAGRDPYKLRPVAAEIYGTKESPQTHYYAVAVVKKGSNFQLDQLQGRKSCHTGLGRSAGWIIPMGILRPYLSWTESLEPLQGAVAKFFSASCVPCIDRQAYPNLCQLCKGEGENQCACSSREPYFGYSGAFKCLQDGAGDVAFVKETTVFENLPEKADRDQYELLCLNNSRAPVDAFKECHLAQVPSHAVVARSVDGKEDLIWKLLSKAQEKFGKNKSRSFQLFGSPPGQRDLLFKDSALGFLRIPSKVDSALYLGSRYLTTLKNLRETAEEVKARYTRVVWCAVGPEEQKKCQQWSQQSGQNVTCATASTTDDCIVLVLKGEADALNLDGGYIYTAGKCGLVPVLAENRKSSKHSSLDCVLRPTEGYLAVAVVKKANEGLTWNSLKDKKSCHTAVDRTAGWNIPMGLIVNQTGSCAFDEFFSQSCAPGADPKSRLCALCAGDDQGLDKCVPNSKEKYYGYTGAFRCLAEDVGDVAFVKNDTVWENTNGESTADWAKNLNREDFRLLCLDGTRKPVTEAQSCHLAVAPNHAVVSRSDRAAHVKQVLLHQQALFGKNGKNCPDKFCLFKSETKNLLFNDNTECLAKLGGRPTYEEYLGTEYVTAIANLKKCSTSPLLEACAFLTR
With B3, in data set [7] (original sealed packaging, stored below 20° C., max 75% relative humidity), the shelf life entry is reported as “at least three years”. Also, in data set [7] (typical analysis), the “Iron binding: spectrophotometric method at 465 nm (on solids)” value is listed as 76% and the “pH (2%, 20° C.)” value was 5.7. Moreover, the “removal of IgA protease precursor” value in data set [5] (Rd3-13, after 15 minutes) is “virtually no precursor was removed”. Moreover, the “removal of IgA protease precursor” value in data set [5] (Rd3-13, after two hours) was “only a trace of the precursor was removed”.

Source of the values: patent US20020165128A1, “Compositions and methods for proteolytically inactivating infectious agents using lactoferrin and related molecules” (priority 1998, published 2002).
